In publication PMC4399498 (Nature communications, 2014):

Target: the molecule itself
Assay: crystal structure

B1: KdpE-E216A (natural protein, E. coli, UniProt P21866 1-225, looked up)
chain: MTNVLIVEDEQAIRRFLRTALEGDGMRVFEAETLQRGLLEAATRKPDLIILDLGLPDGDGIEFIRDLRQWSAVPVIVLSARSEESDKIAALDAGADDYLSKPFGIGELQARLRVALRRHSATTAPDPLVKFSDVTVDLAARVIHRGEEEVHLTPIEFRLLAVLLNNAGKVLTQRQLLNQVWGPNAVEHSHYLRIYMGHLRQKLEQDPARPRHFITATGIGYRFML
B1: binds.
